B1: RAB11A (parent)
chain: AVPTDEARAFAEKNGLSFIETSAL
B2: FBXO3 (parent)
chain: AGGFQQRQGLKYCLPLTFCIHTGL

Variants of: B1
Test: protein stability index of a GFP-peptide fusion (GPS, HEK-293T) (PSI 1-6); higher = more stable
Details: c terminus: a fixed tail appended
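Also: lentivirally expressed fusions sorted by FACS into six bins by GFP to DsRed ratio, PSI derived from sequencing read proportions per bin multiplied by bin number.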

Variant	protein stability index
AVVTDEARAFAEKNGLSFIETSAL	2.14
AVHTDEARAFAEKNGLSFIETSAL	2.54
AVYTDEARAFAEKNGLSFIETSAL	2.23
AVWTDEARAFAEKNGLSFIETSAL	2.08
AVETDEARAFAEKNGLSFIETSAL	2.47
AVFTDEARAFAEKNGLSFIETSAL	2.23
AVKTDEARAFAEKNGLSFIETSAL	2.55
AVATDEARAFAEKNGLSFIETSAL	2.61
AVNTDEARAFAEKNGLSFIETSAL	2.77
AVRTDEARAFAEKNGLSFIETSAL	2.07
AVMTDEARAFAEKNGLSFIETSAL	2.47
AVSTDEARAFAEKNGLSFIETSAL	2.57
AVQTDEARAFAEKNGLSFIETSAL	2.78
AVTTDEARAFAEKNGLSFIETSAL	2.81
AVCTDEARAFAEKNGLSFIETSAL	1.67
AVLTDEARAFAEKNGLSFIETSAL	2.59
AVGTDEARAFAEKNGLSFIETSAL	2.41
AVDTDEARAFAEKNGLSFIETSAL	3.01
AVITDEARAFAEKNGLSFIETSAL	2.36
AVPRDEARAFAEKNGLSFIETSAL	2.02
AVPMDEARAFAEKNGLSFIETSAL	2.12
AVPFDEARAFAEKNGLSFIETSAL	2.06
AVPGDEARAFAEKNGLSFIETSAL	2.52
AVPADEARAFAEKNGLSFIETSAL	2.04
AVPIDEARAFAEKNGLSFIETSAL	2.28
AVPPDEARAFAEKNGLSFIETSAL	2.43
AVPYDEARAFAEKNGLSFIETSAL	2.11

Variant	protein stability index
AVPLDEARAFAEKNGLSFIETSAL	2.79
AVPQDEARAFAEKNGLSFIETSAL	2.84
AVPKDEARAFAEKNGLSFIETSAL	2.39
AVPCDEARAFAEKNGLSFIETSAL	1.89
AVPSDEARAFAEKNGLSFIETSAL	2.23
AVPVDEARAFAEKNGLSFIETSAL	1.93
AVPNDEARAFAEKNGLSFIETSAL	2.22
AVPDDEARAFAEKNGLSFIETSAL	2.84
AVPEDEARAFAEKNGLSFIETSAL	2.75
AVPWDEARAFAEKNGLSFIETSAL	1.93
AVPHDEARAFAEKNGLSFIETSAL	2.6
AVPTLEARAFAEKNGLSFIETSAL	2.41
AVPTKEARAFAEKNGLSFIETSAL	1.79
AVPTMEARAFAEKNGLSFIETSAL	1.72
AVPTNEARAFAEKNGLSFIETSAL	1.95
AVPTAEARAFAEKNGLSFIETSAL	1.77
AVPTHEARAFAEKNGLSFIETSAL	2.33
AVPTWEARAFAEKNGLSFIETSAL	1.49
AVPTPEARAFAEKNGLSFIETSAL	2.23
AVPTYEARAFAEKNGLSFIETSAL	2.15
AVPTFEARAFAEKNGLSFIETSAL	1.92
AVPTTEARAFAEKNGLSFIETSAL	2.52
AVPTSEARAFAEKNGLSFIETSAL	2.19
AVPTGEARAFAEKNGLSFIETSAL	1.94
AVPTCEARAFAEKNGLSFIETSAL	1.89
AVPTQEARAFAEKNGLSFIETSAL	2.07
AVPTVEARAFAEKNGLSFIETSAL	2.05

Variant	protein stability index
AVPTEEARAFAEKNGLSFIETSAL	2.35
AVPTIEARAFAEKNGLSFIETSAL	2.04
AVPTREARAFAEKNGLSFIETSAL	1.99
AIPTDEARAFAEKNGLSFIETSAL	2.18
ANPTDEARAFAEKNGLSFIETSAL	2.52
AEPTDEARAFAEKNGLSFIETSAL	2.97
APPTDEARAFAEKNGLSFIETSAL	2.98
AGPTDEARAFAEKNGLSFIETSAL	2.73
ACPTDEARAFAEKNGLSFIETSAL	2.15
AMPTDEARAFAEKNGLSFIETSAL	2.67
AWPTDEARAFAEKNGLSFIETSAL	2.05
ARPTDEARAFAEKNGLSFIETSAL	2.56
ATPTDEARAFAEKNGLSFIETSAL	2.47
ASPTDEARAFAEKNGLSFIETSAL	2.48
AYPTDEARAFAEKNGLSFIETSAL	2.49
AAPTDEARAFAEKNGLSFIETSAL	2.51
ALPTDEARAFAEKNGLSFIETSAL	2.48
AKPTDEARAFAEKNGLSFIETSAL	2.11
AHPTDEARAFAEKNGLSFIETSAL	2.46
AFPTDEARAFAEKNGLSFIETSAL	2.35
AQPTDEARAFAEKNGLSFIETSAL	2
ADPTDEARAFAEKNGLSFIETSAL	2.74
RVPTDEARAFAEKNGLSFIETSAL	2.46
PVPTDEARAFAEKNGLSFIETSAL	2.38
WVPTDEARAFAEKNGLSFIETSAL	1.8
EVPTDEARAFAEKNGLSFIETSAL	2.72
DVPTDEARAFAEKNGLSFIETSAL	2.82

Variant	protein stability index
GVPTDEARAFAEKNGLSFIETSAL	2.77
SVPTDEARAFAEKNGLSFIETSAL	2.56
MVPTDEARAFAEKNGLSFIETSAL	2.41
HVPTDEARAFAEKNGLSFIETSAL	2.63
LVPTDEARAFAEKNGLSFIETSAL	2.28
KVPTDEARAFAEKNGLSFIETSAL	2.8
VVPTDEARAFAEKNGLSFIETSAL	2.49
QVPTDEARAFAEKNGLSFIETSAL	2.43
IVPTDEARAFAEKNGLSFIETSAL	2.57
CVPTDEARAFAEKNGLSFIETSAL	1.45
TVPTDEARAFAEKNGLSFIETSAL	2.55
NVPTDEARAFAEKNGLSFIETSAL	2.4
FVPTDEARAFAEKNGLSFIETSAL	3.39
YVPTDEARAFAEKNGLSFIETSAL	2.23
AVPTDGARAFAEKNGLSFIETSAL	1.87
AVPTDKARAFAEKNGLSFIETSAL	1.8
AVPTDMARAFAEKNGLSFIETSAL	2.15
AVPTDLARAFAEKNGLSFIETSAL	1.6
AVPTDFARAFAEKNGLSFIETSAL	1.73
AVPTDDARAFAEKNGLSFIETSAL	2.18
AVPTDIARAFAEKNGLSFIETSAL	1.73
AVPTDCARAFAEKNGLSFIETSAL	2.13
AVPTDHARAFAEKNGLSFIETSAL	1.87
AVPTDAARAFAEKNGLSFIETSAL	1.94

Variants of: B2
Test: as above
Details: c terminus: a fixed tail appended

Variant	protein stability index
AGGFQQRQGLKYCLPLTFCIHTGD	2.42
AGGFQQRQGLKYCLPLTFCIHTGS	2.14
AGGFQQRQGLKYCLPLTFCIHTGV	3.48
AGGFQQRQGLKYCLPLTFCIHTGI	2.69
AGGFQQRQGLKYCLPLTFCIHTGQ	1.96
AGGFQQRQGLKYCLPLTFCIHTGW	2.7
AGGFQQRQGLKYCLPLTFCIHTGE	3.16
AGGFQQRQGLKYCLPLTFCIHTGM	2.99
AGGFQQRQGLKYCLPLTFCIHTGC	2.15
AGGFQQRQGLKYCLPLTFCIHTGP	1.88
AGGFQQRQGLKYCLPLTFCIHTGT	2.42
AGGFQQRQGLKYCLPLTFCIHTGY	2.45
AGGFQQRQGLKYCLPLTFCIHTGG	2.74
AGGFQQRQGLKYCLPLTFCIHTGA	2.48
AGGFQQRQGLKYCLPLTFCIHTGF	2.33
AGGFQQRQGLKYCLPLTFCIHTGR	2.73
AGGFQQRQGLKYCLPLTFCIHTGH	2.7
AGGFQQRQGLKYCLPLTFCIHTGN	2.3
AGGFQQRQGLKYCLPLTFCIHTGK	1.66
AGGFQQRQGLKYCLPLTFCIHTRL	3.05
AGGFQQRQGLKYCLPLTFCIHTVL	3.1

Variant	protein stability index
AGGFQQRQGLKYCLPLTFCIHTQL	3.06
AGGFQQRQGLKYCLPLTFCIHTCL	3.16
AGGFQQRQGLKYCLPLTFCIHTDL	2.58
AGGFQQRQGLKYCLPLTFCIHTML	2.31
AGGFQQRQGLKYCLPLTFCIHTIL	1.85
AGGFQQRQGLKYCLPLTFCIHTLL	2.67
AGGFQQRQGLKYCLPLTFCIHTKL	2.81
AGGFQQRQGLKYCLPLTFCIHTEL	2.4
AGGFQQRQGLKYCLPLTFCIHTAL	3.52
AGGFQQRQGLKYCLPLTFCIHTWL	2.97
AGGFQQRQGLKYCLPLTFCIHTFL	3.1
AGGFQQRQGLKYCLPLTFCIHTPL	3.02
AGGFQQRQGLKYCLPLTFCIHTNL	2.97
AGGFQQRQGLKYCLPLTFCVHTGL	2.78
AGGFQQRQGLKYCLPLTFCKHTGL	1.6
AGGFQQRQGLKYCLPLTFCMHTGL	2.73
AGGFQQRQGLKYCLPLTFCSHTGL	2.43
AGGFQQRQGLKYCLPLTFCRHTGL	3.02
AGGFQQRQGLKYCLPLTFCPHTGL	2.11
AGGFQQRQGLKYCLPLTFCLHTGL	3.23
AGGFQQRQGLKYCLPLTFCWHTGL	1.25

Variant	protein stability index
AGGFQQRQGLKYCLPLTFCNHTGL	2.33
AGGFQQRQGLKYCLPLTFCTHTGL	2.56
AGGFQQRQGLKYCLPLTFCAHTGL	1.89
AGGFQQRQGLKYCLPLTFCGHTGL	2.69
AGGFQQRQGLKYCLPLTFCCHTGL	3.77
AGGFQQRQGLKYCLPLTFCDHTGL	2.93
AGGFQQRQGLKYCLPLTFCQHTGL	2.62
AGGFQQRQGLKYCLPLTFCFHTGL	2.34
AGGFQQRQGLKYCLPLTFCEHTGL	2.95
AGGFQQRQGLKYCLPLTFCIKTGL	2.03
AGGFQQRQGLKYCLPLTFCIDTGL	2.99
AGGFQQRQGLKYCLPLTFCIGTGL	2.73
AGGFQQRQGLKYCLPLTFCICTGL	3.66
AGGFQQRQGLKYCLPLTFCIWTGL	2.15
AGGFQQRQGLKYCLPLTFCIYTGL	3.41
AGGFQQRQGLKYCLPLTFCIMTGL	1.72
AGGFQQRQGLKYCLPLTFCIITGL	2.36
AGGFQQRQGLKYCLPLTFCIQTGL	2.73
AGGFQQRQGLKYCLPLTFCIFTGL	3.32
AGGFQQRQGLKYCLPLTFCIPTGL	2.76
AGGFQQRQGLKYCLPLTFCISTGL	2.72

Variant	protein stability index
AGGFQQRQGLKYCLPLTFCIVTGL	3.83
AGGFQQRQGLKYCLPLTFCITTGL	2.59
AGGFQQRQGLKYCLPLTFCILTGL	2.46
AGGFQQRQGLKYCLPLTFCIETGL	1.98
AGGFQQRQGLKYCLPLTFCIHWGL	2.86
AGGFQQRQGLKYCLPLTFCIHAGL	1.86
AGGFQQRQGLKYCLPLTFCIHQGL	2.23
AGGFQQRQGLKYCLPLTFCIHKGL	2.49
AGGFQQRQGLKYCLPLTFCIHDGL	1.27
AGGFQQRQGLKYCLPLTFCIHLGL	2.59
AGGFQQRQGLKYCLPLTFCIHMGL	2.18
AGGFQQRQGLKYCLPLTFCIHCGL	2.09
AGGFQQRQGLKYCLPLTFCIHSGL	3.29
AGGFQQRQGLKYCLPLTFCIHRGL	2.2
AGGFQQRQGLKYCLPLTFCIHYGL	3.75
AGGFQQRQGLKYCLPLTFCIHPGL	3.88
AGGFQQRQGLKYCLPLTFCIHVGL	3.1
AGGFQQRQGLKYCLPLTFCIHHGL	2.17
AGGFQQRQGLKYCLPLTFCIHNGL	3.55
AGGFQQRQGLKYCLPLTFCIHEGL	2.24
